From patent US20060257938A1, “Method of screening for drugs that block ligand binding to a lipid binding protein” (priority 2005, published 2006)
Several values for one entry are separate records, joined by “and”; a condition that tells them apart may be missing. Equal values may be shown once.

Tests used:
Format in all cases: binding
Settings in all cases: response relative to ADIFAB2
[1] = Probe fluorescence ratio response to linolenic acid relative to ADIFAB2
Outline: (§1)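 Fluorescently labeled rat intestinal FABP variants were read at two emission wavelengths, near the unbound maximum (about 420 to 480 nm) and the FFA-bound maximum (about 495 to 580 nm). R = Fλ1/Fλ2 after subtracting probe-free intensity; ΔR = R+agent − R0, normalized to ADIFAB2 (rI-FABP-L72A).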

[2] = Probe fluorescence ratio response to linoleic acid relative to ADIFAB2
Outline: as §1

[3] = Probe fluorescence ratio response to oleic acid relative to ADIFAB2
Outline: as §1

[4] = Probe fluorescence ratio response to arachidonic acid relative to ADIFAB2
Outline: as §1

[5] = Probe fluorescence ratio response to palmitic acid relative to ADIFAB2
Outline: as §1

Molecule	DR/DR LNA [1]	DR/DR LA [2]	DR/DR OA [3]	DR/DR AA ([4]; Arachidonic acid)	DR/DR PA [5]	DR/DR AA ([4]; arachidonic acid)
47E3, L72A (protein, listed as Rattus norvegicus, PEPTIDE (1)...(131) wild-type rat intestinal fatty acid binding protein) AFDGTWKVDRNENYEKFMEKMGINVVKRKLGAHDNLKLTITQEGNKETVKESSNFRNIDVVFELGVDFAYSAADGTELTGTWTMEGNKLVGKFKRVDNGKELIAVREISGNELIQTYTYEGVEAKRIFKKE	1.26	1.23	1.25	1.25	1.06	
102R, 72A (protein, listed as Rattus norvegicus, PEPTIDE (1)...(131) wild-type rat intestinal fatty acid binding protein) AFDGTWKVDRNENYEKFMEKMGINVVKRKLGAHDNLKLTITQEGNKFTVKESSNFRNIDVVFELGVDFAYSAADGTELTGTWTMEGNKLVGKFKRVDNGKERIAVREISGNELIQTYTYEGVEAKRIFKKE	0.57	0.60	0.56		0.25	0.51
47L2, L72A (protein, listed as Rattus norvegicus, PEPTIDE (1)...(131) wild-type rat intestinal fatty acid binding protein) AFDGTWKVDRNENYEKFMEKMGINVVKRKLGAHDNLKLTITQEGNKLTVKESSNFRNIDVVFELGVDFAYSAADGTELTGTWTMEGNKLVGKFKRVDNGKELIAVREISGNELIQTYTYEGVEAKRIFKKE	1.20	1.21	1.20	1.15	0.90	
49C1, 72A (protein, listed as Rattus norvegicus, PEPTIDE (1)...(131) wild-type rat intestinal fatty acid binding protein) AFDGTWKVDRNENYEKFMEKMGINVVKRKLGAHDNLKLTITQEGNKFTCKESSNFRNIDVVFELGVDFAYSAADGTELTGTWTMEGNKLVGKFKRVDNGKELIAVREISGNELIQTYTYEGVEAKRIFKKE	−0.18	−0.21	−0.20	−0.13	−0.18	
49A1, 72A (protein, listed as Rattus norvegicus, PEPTIDE (1)...(131) wild-type rat intestinal fatty acid binding protein) AFDGTWKVDRNENYEKFMEKMGINVVKRKLGAHDNLKLTITQEGNKFTAKESSNFRNIDVVFELGVDFAYSAADGTELTGTWTMEGNKLVGKFKRVDNGKELIAVREISGNELIQTYTYEGVEAKRIFKKE	1.68	1.72	1.60	1.72	0.79	
102T, 72A (protein, listed as Rattus norvegicus, PEPTIDE (1)...(131) wild-type rat intestinal fatty acid binding protein) AFDGTWKVDRNENYEKFMEKMGINVVKRKLGAHDNLKLTITQEGNKFTVKESSNFRNIDVVFELGVDFAYSAADGTELTGTWTMEGNKLVGKFKRVDNGKETIAVREISGNELIQTYTYEGVEAKRIFKKE	0.24	0.26	0.26		0.12	0.21
47M, 72A (protein, listed as Rattus norvegicus, PEPTIDE (1)...(131) wild-type rat intestinal fatty acid binding protein) AFDGTWKVDRNENYEKFMEKMGINVVKRKLGAHDNLKLTITQEGNKMTVKESSNFRNIDVVFELGVDFAYSAADGTELTGTWTMEGNKLVGKFKRVDNGKELIAVREISGNELIQTYTYEGVEAKRIFKKE	1.13 and 1.135	1.18 and 1.183	1.17 and 1.168	1.14	0.97 and 0.966	1.138
47S1, L72A (protein, listed as Rattus norvegicus, PEPTIDE (1)...(131) wild-type rat intestinal fatty acid binding protein) AFDGTWKVDRNENYEKFMEKMGINVVKRKLGAHDNLKLTITQEGNKSTVKESSNFRNIDVVFELGVDFAYSAADGTELTGTWTMEGNKLVGKFKRVDNGKELIAVREISGNELIQTYTYEGVEAKRIFKKE	0.69	0.66	0.64	0.61	0.34	
47T1, L72A (protein, listed as Rattus norvegicus, PEPTIDE (1)...(131) wild-type rat intestinal fatty acid binding protein) AFDGTWKVDRNENYEKFMEKMGINVVKRKLGAHDNLKLTITQEGNKTTVKESSNFRNIDVVFELGVDFAYSAADGTELTGTWTMEGNKLVGKFKRVDNGKELIAVREISGNELIQTYTYEGVEAKRIFKKE	0.74	0.77	0.74	0.68	0.46	
102S, 72A (protein, listed as Rattus norvegicus, PEPTIDE (1)...(131) wild-type rat intestinal fatty acid binding protein) AFDGTWKVDRNENYEKFMEKMGINVVKRKLGAHDNLKLTITQEGNKFTVKESSNFRNIDVVFELGVDFAYSAADGTELTGTWTMEGNKLVGKFKRVDNGKESIAVREISGNELIQTYTYEGVEAKRIFKKE	0.43	0.45	0.43		0.18	0.39
47V3, L72A (protein, listed as Rattus norvegicus, PEPTIDE (1)...(131) wild-type rat intestinal fatty acid binding protein) AFDGTWKVDRNENYEKFMEKMGINVVKRKLGAHDNLKLTITQEGNKVTVKESSNFRNIDVVFELGVDFAYSAADGTELTGTWTMEGNKLVGKFKRVDNGKELIAVREISGNELIQTYTYEGVEAKRIFKKE	1.01	1.04	1.01	1.00	0.78	
47I2, L72A (protein, listed as Rattus norvegicus, PEPTIDE (1)...(131) wild-type rat intestinal fatty acid binding protein) AFDGTWKVDRNENYEKFMEKMGINVVKRKLGAHDNLKLTITQEGNKITVKESSNFRNIDVVFELGVDFAYSAADGTELTGTWTMEGNKLVGKFKRVDNGKELIAVREISGNELIQTYTYEGVEAKRIFKKE	1.19	1.22	1.15	1.19	0.92	
47H1, L72A (protein, listed as Rattus norvegicus, PEPTIDE (1)...(131) wild-type rat intestinal fatty acid binding protein) AFDGTWKVDRNENYEKFMEKMGINVVKRKLGAHDNLKLTITQEGNKHTVKESSNFRNIDVVFELGVDFAYSAADGTELTGTWTMEGNKLVGKFKRVDNGKELIAVREISGNELIQTYTYEGVEAKRIFKKE	0.70	0.74	0.67	0.63	0.43	
49D1, 72A (protein, listed as Rattus norvegicus, PEPTIDE (1)...(131) wild-type rat intestinal fatty acid binding protein) AFDGTWKVDRNENYEKFMEKMGINVVKRKLGAHDNLKLTITQEGNKFTDKESSNFRNIDVVFELGVDFAYSAADGTELTGTWTMEGNKLVGKFKRVDNGKELIAVREISGNELIQTYTYEGVEAKRIFKKE	0.30	0.32	0.32	0.31	0.16	
47P1, L72A (protein, listed as Rattus norvegicus, PEPTIDE (1)...(131) wild-type rat intestinal fatty acid binding protein) AFDGTWKVDRNENYEKFMEKMGINVVKRKLGAHDNLKLTITQEGNKPTVKESSNFRNIDVVFELGVDFAYSAADGTELTGTWTMEGNKLVGKFKRVDNGKELIAVREISGNELIQTYTYEGVEAKRIFKKE	0.61	0.59	0.57	0.54	0.26	
47Y2, L72A (protein, listed as Rattus norvegicus, PEPTIDE (1)...(131) wild-type rat intestinal fatty acid binding protein) AFDGTWKVDRNENYEKFMEKMGINVVKRKLGAHDNLKLTITQEGNKYTVKESSNFRNIDVVFELGVDFAYSAADGTELTGTWTMEGNKLVGKFKRVDNGKELIAVREISGNELIQTYTYEGVEAKRIFKKE	1.40	1.40	1.42	1.37	1.17	
47R3, L72A (protein, listed as Rattus norvegicus, PEPTIDE (1)...(131) wild-type rat intestinal fatty acid binding protein) AFDGTWKVDRNENYEKFMEKMGINVVKRKLGAHDNLKLTITQEGNKRTVKESSNFRNIDVVFELGVDFAYSAADGTELTGTWTMEGNKLVGKFKRVDNGKELIAVREISGNELIQTYTYEGVEAKRIFKKE	0.61	0.64	0.62	0.56	0.30	
